Target: PrgJ (S. enterica sv. Typhimurium (endogenous in SB905)) (UniProt P41785)
Test: cryo-EM structure

Chain of PrgJ (P41785 whole entry): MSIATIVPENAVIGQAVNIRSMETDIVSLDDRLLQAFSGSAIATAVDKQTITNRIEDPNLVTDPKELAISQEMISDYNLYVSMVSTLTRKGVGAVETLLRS

“PrgJ (from UniProt P41785 1-101) (natural protein)” was tested. Which stoichiometry N did it give?
The stoichiometry N was 6.

Source: publication PMC7943601
